Patent US20220273710A1 (AUTOLUS, published 2022)

T1: Recombinant purified CD79b (R&D systems) (human, UniProt P40259 29-159)
T1 construct: Bought protein
T1 sequence: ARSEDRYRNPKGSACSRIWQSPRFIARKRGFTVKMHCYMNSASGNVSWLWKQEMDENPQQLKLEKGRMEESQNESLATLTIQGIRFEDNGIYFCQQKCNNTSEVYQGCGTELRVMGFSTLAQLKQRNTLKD


Molecular target: T1, Recombinant purified CD79b (R&D systems)
Experiment: SPR, Biacore 8K, antibody immobilised on CM5 chip, CD79b as analyte, 25° C, 1:1 Langmuir fit
Excerpt: Recombinant anti-CD79b antibodies Polatuzumab and newly generated antibodies 2E8, 3H2, and 7G4 were immobilised on individual flow cells on a Series S CM5 sensor chip (GE Healthcare) to a density of 150-280 RU using a Biacore 8K instrument. HBS-P+buffer was used as running buffer under all experimental conditions. Recombinant purified CD79b (R&D systems) at known concentrations was used as the ‘analyte’ and injected over the respective flow cells with 150s contact time and 300s dissociation, at 30 μl/minute of flow rate and a constant temperature of 25° C. In each experiment, flow cell 1 was unmodified and used for reference subtraction. A ‘0 concentration’ sensorgram of buffer alone was used as a double reference subtraction to factor for drift. Data were fit to a 1:1 Langmuir binding model.

| Kd | koff | kon | Binder |
| --- | --- | --- | --- |
| 2.62 nM | 0.00431 s⁻¹ | 1.64e+06 M⁻¹ s⁻¹ | 3H2 (antibody, mouse IgG2a, V domains shown, also called 3H2 antibody; clone 3H2) VH: AVQLVESGGGLVQPKESLKLSCAASGFTFSHTAMYWVRQAPGKGLECVARIRIQPKNYATYYADSVKGRFTISRDDSKSMVYLQMDNLKTEDTAMYYCTAAGFGFDYWGQGVMVTVSS VL: DVVLTQTPVSLSVTLGDQASISCRSSQSLEYSDGNTYLEWYLQKPGQSPQLLIYEVSKRFSGVPDRFIGSGSGTDFTLKISRVEPEDLGIYYCLQATHDPFTFGSGTKLEIK |
| 7.11 nM | 0.0805 s⁻¹ | 1.13e+07 M⁻¹ s⁻¹ | 2E8 (antibody, mouse IgG2a, V domains shown, also called 2E8 antibody; clone 2E8) VH: AVQLVESGGGLVQPKESLKISCAASGFTFSNAAMYWVRQAPGKGLEWVARIRTKPNNYATNYADSVKGRFTISRDDSKSMVYLQMDNLKTEDTAMYYCTYYDGSSYAMDAWGQGTSVTVSS VL: DVVLTQTPVSLSVTLGDQASISCRSSQSLEYSDGYTYLDWYLQKPGQSPQLLIYEVSNRFSGVPDRFIGSGSGTDFTLKISRVEPEDLGVYYCFQATHDPYTFGAGTKLEIK |
| 3.1 nM |  |  | 7G4 (antibody, mouse IgG2a, V domains shown, also called 7G4 antibody; clone 7G4) VH: AVQLVESGGGLVQPKESLKISCAASGFTFSNAAMYWVRQAPGKGLEWVARIRTKPNNYATNYADSVKGRFTISRDDSKSMVYLQMDNLKTEDTAMYYCTYYDGSSYAMDAWGQGTSVTVSS VL: DVVLTQTPVSLSVTLGDQASISCRSSQSLEYSDGYTYLDWYLQKPGQSPQLLIYEISNRFSGVPDRFIGSGSGTDFTLKISRVEPEDLGVYYCFQATHDPYTFGAGTKLEIK |
| 6.88 nM | 0.00806 s⁻¹ | 1.17e+06 M⁻¹ s⁻¹ | Polatuzumab (antibody, V domains shown, polatuzumab'; also called humanised anti-CD79b 2F2; anti-CD79b antibody polatuzumab) VH: EVQLVESGGGLVQPGGSLRLSCAASGYTFSSYWIEWVRQAPGKGLEWIGEILPGGGDTNYNEIFKGRATFSADTSKNTAYLQMNSLRAEDTAVYYCTRRVPIRLDYWGQGTLVTVSS VL: DIQLTQSPSSLSASVGDRVTITCKASQSVDYEGDSFLNWYQQKPGKAPKLLIYAASNLESGVPSRFSGSGSGTDFTLTISSLQPEDFATYYCQQSNEDPLTFGQGTKVEIKR |
